How the values were obtained:
experimental rat wounds = assay: Rat model of scar formation, dose response, two equal doses separated by 24 hours; format: in vivo; settings: repeated treatment with low doses or with high doses (range 5-500 ng/cm), 24 hours apart
Method: FIG. 10 illustrates a “bell-shaped” dose response curve in a rat model of scar formation in response to different doses of TGF-β3. TGF-β3 was provided to wounds via two injections of TGF-β3 separated by approximately 24 hours. The amount of TGF-β3 provided in each injection was the same in each incidence of treatment.
FIG. 10 illustrates that the TGF-β3 “bell-shaped” dose response curve observed in human subjects is also found in experimental animals. Here, TGF-β3 was provided to experimental rat wounds, in two incidences of treatment separated by 24 hours (the first incidence of treatment occurring at, or around, the time of wounding). The amount of TGF-β3 administered per centimetre of wound in each incidence of treatment is shown on the X-axis (5 ng/cm, 50 ng/cm, 200 ng/cm or 500 ng/cm).

human wounds = assay: Human study, two incidences of treatment approximately 24 hours apart, lay panel VAS scar scoring and macroscopic images; format: in vivo
Method: In this study, control treatments using TGFβ3 and Placebo were administered in two incidences of treatment (each by intradermal injection), the first prior to wounding and the second approximately 24 hours after wounding. […] To test the effect of control treatment with TGF-β3, ToScar of the TGFβ3 scar was subtracted from the anatomically matched Placebo ToScar on the other arm on each subject. ToScar was calculated as the sum of VAS scores (mm) from week 6 and months 3, 4, 5, 6 and 7. The scars were scored by an independent lay panel at 6 time points after dosing (week 6, months 3-7) using a 100 mm VAS line.
The macroscopic images are from within subject scars produced on healing of placebo treated and TGFβ3 control treated wounds (dosed twice with 50 ng, 200 ng or 500 ng/100 μl TGFβ3 per cm of wound margin in two incidences of treatment approximately 24 hours apart) in a clinical trial conducted by the inventors. The same amount of TGF-β3 was administered in each incidence of treatment, and the amounts used are shown in the captions (50 ng/100 μl TGFβ3 per cm of wound margin shown top left, with placebo from the same subject top right; 200 ng/100 μl TGFβ3 per cm of wound margin shown middle left, with placebo from the same subject middle right; and 500 ng/100 μl TGFβ3 per cm of wound margin shown bottom left, with placebo from the same subject bottom right).
TGFβ3 and Placebo were administered by means of intradermal injection in two incidences of treatment, the first prior to wounding and the second approximately 24 hours later. […] The scars were scored by an independent lay panel at 6 time points after dosing (week 6, months 3-7) using a 100 mm VAS line.

[1] = test system: scars produced on healing of wounds; assay: Profilometry analysis of silicone moulds from scars, dosed twice approximately 24 hours apart; format: in vivo, human
From the text: Note that this is not a method of treatment in accordance with the invention, but (along with FIG. 6) serves to provide comparative data illustrating the surprising effectiveness of a method of treatment in accordance with the invention.

[2] = dosed twice with 50 ng/100 μl per cm approximately 24 hours apart
[3] = dosed twice with 200 ng/100 μl per cm approximately 24 hours apart

B1: TGF-β3: well-known anti-scarring growth factor, Sequence ID No. 1; labelled "Juvista" in FIGS. 8 and 9 (protein, listed as Homo sapiens)
chain: ALDTNYCFRNLEENCCVRPLYIDFRQDLGWKWVHEPKGYYANFCSGPCPYLRSADTTHSTVLGLYNTLNPEASASPCCVPQDLEPLTILYYVGRTPKVEQLSNMVVKSCKCS
Question: What does the source list for B1?
Answer: inhibition of scarring (experimental rat wounds): little inhibition of scarring; effectiveness relative to other doses (human wounds; 500 ng in each of two incidences of treatment separated by 24 hours): notably more effective than the others; effectiveness relative to other doses (mean VAS scores over time) (human wounds; 500 ng per centimetre in each incidence of treatment, approximately 24 hours apart): surprisingly more effective than the other methods of treatment; inhibition of scarring, macroscopic images (human wounds; 500 ng/100 μl per cm twice approximately 24 hours apart (highest dose), versus 50 and 200 ng): greatest inhibition of scarring achieved; inhibition of scarring (human wounds; two applications of 5, 50, 200 and 500 ng/100 μl per cm, prior to and approximately 24 hours post-wounding): effectively inhibited; inhibition of scarring (mean VAS scores over time) (human wounds; two applications of 5, 50, 200 or 500 ng/100 μl per cm, prior to wounding and approximately 24 hour post-wounding, week 6 to month 7): scarring is inhibited; reduction in scar surface area compared to placebo [1, 2]: 30.21%; scar surface area [1, 2]: 12.823 mm^2; reduction in scar raised volume compared to placebo [1, 3]: 73.33%; reduction in scar surface area compared to placebo [1, 3]: 75.19%; scar raised volume [1, 3]: 0.0008 mm^3; scar surface area [1, 3]: 3.532 mm^2; inhibition of scarring, 3-dimensional simulations ([1]; dosed twice with 500 ng/100 μl per cm approximately 24 hours apart): Maximal inhibition of scarring
